Tested on: MS2 coat protein
Assay: apparent KD of MS2 coat protein; designed switch direction (-1 OFF switch, 1 ON switch): -1; higher = weaker reporter binding
Outline: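 Each step of the titration lasted 0.8–1.5 h at the lowest concentration and 10–20 min at the highest. The protein, SNAP-549-labelled MS2 coat protein, went from 0.7 or 1.5 nM doubling to 3 µM over RNA switches transcribed on Illumina chips by stalled E. coli RNA polymerase. Normalised cluster fluorescence was curve-fitted, and the per-design median over clusters is given as apparent KD.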

[1] = input ligand: microRNA oligo, concentration not stated
[2] = Eterna round: R95, input ligand: FMN 200 uM
[3] = Eterna round: R95, input ligand: microRNA oligo, concentration not stated
[4] = Eterna round: R95, input ligand: none

Sequence: CGGGCCGGCCUUCCGGCCGGCCCGACAUGAGGAUCACCCAUGUAGGAUAUCCCGGCUGCCGGCCGGGAGAAGGGCGUGCGUCCG [-50.4, -49.4 kcal, 14% A] (Eterna round: R96, puzzle: Exclusion NG 3)
- apparent KD of MS2 coat protein (input ligand: FMN 200 uM): 151 nM
- apparent KD of MS2 coat protein [1]: 87.8 nM
- apparent KD of MS2 coat protein (input ligand: none): 137 nM

Sequence: CGGGCGCGAGGAUAUACAUGAGGAUCACCCAUGUAACGGCGAGCAAUGUUUGUUGCGUGUAGAAGGUGUGUUUG [-20.1, -18.7 kcal, A 27%] (Eterna round: R97, puzzle: Exclusion 3)
- apparent KD of MS2 coat protein (input ligand: FMN 200 uM): 112 nM
- apparent KD of MS2 coat protein (input ligand: none): 155 nM

Sequence: CGGUACUGAGGAUAUACAUGAGGAUCACCCAUGUGUUCCAGCUAGCGUACUGGCAUUAGUAGAAGGCGGUGCUG [JL-ex3-3.17 Brourd mod] (puzzle: Exclusion 3)
- apparent KD of MS2 coat protein [2]: 31.4 nM
- apparent KD of MS2 coat protein [3]: 12.8 nM
- apparent KD of MS2 coat protein [4]: 14.3 nM

Sequence: CGGUACUGAGGAUAUACAUGAGGAUCACCCAUGUGUUCUAGCUAGCGUACUGGCAUUAGUAGAAGGCGGUGCUG [JL-ex3-3.18 Brourd mod] (puzzle: Exclusion 3)
- apparent KD of MS2 coat protein [2]: 28.9 nM
- apparent KD of MS2 coat protein [3]: 15.4 nM
- apparent KD of MS2 coat protein [4]: 17.2 nM

Sequence: CGUAGCAAAGUGAGGAUAUCUAGAGCGAUAGCUCUAGAGAAGGCACAUGAGGAUCACCCAUGUGGUCAGCUACG [BmEx4/8-A4] (Eterna round: R97, puzzle: Brourd's mod of Exclusion 4)
- apparent KD of MS2 coat protein (input ligand: FMN 200 uM): 393 nM
- apparent KD of MS2 coat protein (input ligand: none): 82.4 nM

Sequence: CGUAGCAAUGUGAGGAUAUCUAGAGCCUCGGCUCUAGAGAAGGCACAUGAGGAUCACCCAUGUGAUUAGCUACG [BmEx4/9-B2] (Eterna round: R97, puzzle: Brourd's mod of Exclusion 4)
- apparent KD of MS2 coat protein (input ligand: FMN 200 uM): 597 nM
- apparent KD of MS2 coat protein (input ligand: none): 405 nM

Sequence: CGUCAGAUCGCAGGAUAUGUUAGAUGAGCACAGAAUGUCCAGACCACAUGAGGAUCACCCAUGUAACAGAAGGGCGGUCUACGG [Eternabot solution 29] (Eterna round: R96, puzzle: Exclusion NG 2)
- apparent KD of MS2 coat protein (input ligand: FMN 200 uM): 79.3 nM
- apparent KD of MS2 coat protein [1]: 195 nM
- apparent KD of MS2 coat protein (input ligand: none): 95.6 nM

Sequence: CGUCAGUCAGGAUAUGCAUACGUAGACAUGAGGAUCACCCAUGUGACGUGGGACUGGUGUGUAGAAGGGACGAACA [EX5 #78] (Eterna round: R97, puzzle: Exclusion 5)
- apparent KD of MS2 coat protein (input ligand: FMN 200 uM): 23.1 nM
- apparent KD of MS2 coat protein (input ligand: none): 21.3 nM

Sequence: CGUCCUGAAGUGAGGAUAUUGUCUCGGAUACGAAACAAGAAGGCACAUGAGGAUCACCCAUGUAAACAGGACGA [Malc #30 mod 11] (puzzle: Brourd's mod of Exclusion 4)
- apparent KD of MS2 coat protein [2]: 15.3 nM
- apparent KD of MS2 coat protein [3]: 15.6 nM
- apparent KD of MS2 coat protein [4]: 16.9 nM

Sequence: CGUCUGUUAGGAUAUGACCCGCGUACCGUGUCGAGCCGGGUUCAGAAGGAACAUGAGGAUCACCCAUGUGAGAA [Eternabot (L1) Solution 12] (Eterna round: R97, puzzle: Exclusion 4)
- apparent KD of MS2 coat protein (input ligand: FMN 200 uM): 163 nM
- apparent KD of MS2 coat protein (input ligand: none): 27.3 nM

Sequence: CGUGACUCAGGAUAUCUAUAGUGUCACAUGAGGAUCACCCAUGUCCAGCGAAAGCUGGAGGGAGAAGGGAGUCACG [Fiskers Ex 5 - 43] (Eterna round: R96, puzzle: Exclusion 5)
- apparent KD of MS2 coat protein (input ligand: FMN 200 uM): 43.1 nM
- apparent KD of MS2 coat protein [1]: 71.5 nM
- apparent KD of MS2 coat protein (input ligand: none): 87.7 nM

Sequence: CGUGACUCAGGAUAUCUAUAGUGUCACAUGAGGAUCACCCAUGUCCAGCGAAAGCUGGAGGGAGAAGGGAGUCACG [Fiskers Ex 5 - 43] (puzzle: Exclusion 5)
- apparent KD of MS2 coat protein [3]: 90.5 nM

Sequence: CGUGACUCAGGAUAUCUAUGAUAUCACAUGAGGAUCACCCAUGUCCAGCAAUAGCUGGAGGGAGAAGGGAGUCACG [Fiskers Ex 5 - 41] (puzzle: Exclusion 5)
- apparent KD of MS2 coat protein [2]: 84 nM
- apparent KD of MS2 coat protein [3]: 54.3 nM
- apparent KD of MS2 coat protein [4]: 166 nM

Sequence: CGUGACUGAGGAUAUCUAUAAUAUCACAUGAGGAUCACCCAUGUCCAGCGAAAGCUGGAGGGAGAAGGCAGUCACG [Fiskers Ex 5 - 29] (puzzle: Exclusion 5)
- apparent KD of MS2 coat protein [2]: 53 nM
- apparent KD of MS2 coat protein [3]: 127 nM
- apparent KD of MS2 coat protein [4]: 75.3 nM

Sequence: CGUGCGUAUGUGAGGAUAUGCUGGUCCUUGGAUCGGCAGAAGGCACAUGAGGAUCACCCAUGUGGUGUCGUGCA [salish99_Bmod_ex4_090] (puzzle: Brourd's mod of Exclusion 4)
- apparent KD of MS2 coat protein [3]: 190 nM

Sequence: CGUGUCUUUCACGUGAGUGGUGGGUGCAACAGGUGGGAAACAUGAGGAUCACCCAUGUCCUCAUUUGCUCGUCUUAU [Grok-var2-02] (puzzle: Sensor v3, turn-off variant 2)
- apparent KD of MS2 coat protein [2]: 686 nM
- apparent KD of MS2 coat protein [3]: 457 nM
- apparent KD of MS2 coat protein [4]: 572 nM

Sequence: CGUUGGCGAGGAUAUACAUGAGGAUCACCCAUGUGAGAGAAAAAAGUGAGGAAGAAAAGUAGAAGGCGCUGACC [salish99_ex3_r3_049] (puzzle: Exclusion 3)
- apparent KD of MS2 coat protein [2]: 110 nM
- apparent KD of MS2 coat protein [3]: 42.7 nM
- apparent KD of MS2 coat protein [4]: 45.9 nM

Sequence: CUAAAUCAUGUAGGAUAUGCGUGGCGAAGCUAUGCAGAAGGACAUGAGGAUCACCCAUGUGCUUCCGUCUGAGAACAGACGGAA [Mat - Exclusion NG 1 - Mod of JL - D26] (Eterna round: R96, puzzle: Exclusion NG 1)
- apparent KD of MS2 coat protein (input ligand: FMN 200 uM): 115 nM
- apparent KD of MS2 coat protein [1]: 277 nM
- apparent KD of MS2 coat protein (input ligand: none): 251 nM

Sequence: CUAACAUGCUGGUGAUCAUACAUGAGGAUCACCCAUGUAACAAGCUUUUUGUUCGUCUUAUAAGAUUACUAGUAUGU [Stov1/10-B3] (Eterna round: R97, puzzle: Sensor, turn-off variant 1)
- apparent KD of MS2 coat protein (input ligand: FMN 200 uM): 38.8 nM
- apparent KD of MS2 coat protein (input ligand: none): 52.3 nM

Sequence: CUAGAGCGAGGAUAUACAUGAGGAUCACCCAUGUGGCAGCCGGGUAGGAGUGACGUCGGUAGAAGGCGCACCCG [Anrate] (puzzle: Exclusion 3)
- apparent KD of MS2 coat protein [2]: 27.5 nM
- apparent KD of MS2 coat protein [3]: 33.2 nM
- apparent KD of MS2 coat protein [4]: 37.9 nM

Sequence: CUAGAUCUUCGGAUCUAGUACAUGAGGAUCACCCAUGUUACGAGUUGAUUUUCAUACAAGCUUUUUGCUCGUCUUAU [Sensor v3 - Turn-off variant 1 - 28] (puzzle: Sensor v3, turn-off variant 1)
- apparent KD of MS2 coat protein [2]: 134 nM
- apparent KD of MS2 coat protein [3]: 84.4 nM
- apparent KD of MS2 coat protein [4]: 153 nM

Sequence: CUAGCGAAUGUAGGAUAUCGGACUGUUUCAGUCUGAGAAGGACAUGAGGAUCACCCAUGUAUUGCUACGUGAGUAGCUCGCUAG [JL ENG1 3.92] (Eterna round: R96, puzzle: Exclusion NG 1)
- apparent KD of MS2 coat protein (input ligand: FMN 200 uM): 32.4 nM
- apparent KD of MS2 coat protein [1]: 13.7 nM
- apparent KD of MS2 coat protein (input ligand: none): 18 nM

Sequence: CUAGCGAGUGUAGGAUAUCGGACUGUUUCAGUCUGAGAAGGACAUGAGGAUCACCCAUGUGAAGCUACGUGAGUAGCACGCUAG [JL ENG1 3.87] (Eterna round: R96, puzzle: Exclusion NG 1)
- apparent KD of MS2 coat protein (input ligand: FMN 200 uM): 74.5 nM
- apparent KD of MS2 coat protein [1]: 18.3 nM
- apparent KD of MS2 coat protein (input ligand: none): 24.5 nM

Sequence: CUAGCGAUUGUAGGAUAUCGAUGUGUUUCACAUCGAGAAGGACAUGAGGAUCACCCAUGUGAAGGAUCGUGAGAUCCACGCUAG [JL ENG1 3.78] (Eterna round: R96, puzzle: Exclusion NG 1)
- apparent KD of MS2 coat protein (input ligand: FMN 200 uM): 76.6 nM
- apparent KD of MS2 coat protein [1]: 17.5 nM
- apparent KD of MS2 coat protein (input ligand: none): 19.7 nM

Sequence: CUAGCUUCGGCUAGUACAAGCUUUUUGCUCGUCUUAUUAACAUGAGGAUCACCCAUGUUAAUGAGACCUCAUGUAUU [Sensor v3 - turn-off variant 2 - 9] (Eterna round: R96, puzzle: Sensor v3, turn-off variant 2)
- apparent KD of MS2 coat protein (input ligand: FMN 200 uM): 11.5 nM
- apparent KD of MS2 coat protein [1]: 12.2 nM
- apparent KD of MS2 coat protein (input ligand: none): 13.6 nM

Sequence: CUAGCUUCGGCUAGUACAAGCUUUUUGCUCGUCUUAUUAACAUGAGGAUCACCCAUGUUAAUGAGACCUCAUGUAUU [Sensor v3 - turn-off variant 2 - 9] (puzzle: Sensor v3, turn-off variant 2)
- apparent KD of MS2 coat protein [2]: 12.7 nM
- apparent KD of MS2 coat protein [3]: 15.2 nM
- apparent KD of MS2 coat protein [4]: 11.1 nM

Sequence: CUAGGGCACAUUUAAACGCCCUAACAUGAGGAUCACCCAUGUCAGGAUAUGUAGGCAAAGACCCUACAGAAGGGACAUGUCCUA [Recebe] (Eterna round: R96, puzzle: Exclusion NG 3)
- apparent KD of MS2 coat protein (input ligand: FMN 200 uM): 303 nM
- apparent KD of MS2 coat protein [1]: 42.9 nM
- apparent KD of MS2 coat protein (input ligand: none): 52.9 nM

Sequence: CUAUCAAGCAAGGAUAUGCAAAUAAUUAUUUAUGCAGAAGGUGCAACAUGAGGAUCACCCAUGUUUCUGGGUUU [JR_E6_Sub048] (puzzle: Exclusion 6)
- apparent KD of MS2 coat protein [3]: 44.9 nM

Sequence: CUAUCAAGCAAGGAUAUGCAAUUUAUUAUUUAUGCAGAAGGUGCAACAUGAGGAUCACCCAUGUUUCUGGGUUU [JR_E6_Sub047] (puzzle: Exclusion 6)
- apparent KD of MS2 coat protein [3]: 39.5 nM

Sequence: CUAUCUAGAGGAUAUACGAGAUCGAAAGAUCGGCGAUCCCUACAUGAGGAUCACCCAUGUAGAAGGCUAGAUAG [Mod 16 - Jieux - Exclusion 2] (Eterna round: R97, puzzle: Exclusion 2)
- apparent KD of MS2 coat protein (input ligand: FMN 200 uM): 99.5 nM
- apparent KD of MS2 coat protein (input ligand: none): 18.6 nM

Sequence: CUAUGUUAGCAGGAUAUGCCAUUAUUCCUUUACGCAGAAGGGCUUACAUGAGGAUCACCCAUGUUACAUUUCAU [JR_E6_Sub084] (puzzle: Exclusion 6)
- apparent KD of MS2 coat protein [3]: 15.7 nM

Sequence: CUAUUACGAGGAUAUGAUUUAAAUAACAUGAGGAUCACCCAUGUUUUUACGUUAUUUUAUUUAGAAGGCGUAUUGU [JR_E5_Sub028] (puzzle: Exclusion 5)
- apparent KD of MS2 coat protein [2]: 34.1 nM
- apparent KD of MS2 coat protein [3]: 53.7 nM
- apparent KD of MS2 coat protein [4]: 61.5 nM

Sequence: CUCAUGUGAGGAUAUCAGUAGUAAAAAAAUAAAAUUACUACUGAGAAGGCACAUGAGGAUCACCCAUGUGUCUU [EX4 331: Super Stable 31] (Eterna round: R96, puzzle: Exclusion 4)
- apparent KD of MS2 coat protein [1]: 13.3 nM

Sequence: CUCAUGUGAGGAUAUGUGAUCAACCUUCUAUAUAGAUGAUGACAGAAGGCACAUGAGGAUCACCCAUGUAGAUC [Ex4 - 3 - 19] (puzzle: Exclusion 4)
- apparent KD of MS2 coat protein [3]: 37.9 nM

Source: the supplement of paper PMC9170038
